According to US9644017B2, “Insulin derivatives having an extremely delayed time-action profile” (Sanofi-Aventis Deutschland GmbH, priority 2008, dated 2017):

What was measured:
[1] = cited from earlier work
[2] = tested on: healthy male normoglycemic Wistar rats; assay: Blood glucose-lowering effect of novel insulin analogues in rats; format: in vivo, rat; conditions: 9 nmol/kg s.c., n=8, up to eight hours, FIG. 1
Procedure: The blood glucose-lowering effect of selected novel insulin analogues is tested in healthy male normoglycemic Wistar rats. Male rats receive subcutaneous injection of a dose of 9 nmol/kg of an insulin analogue. Blood samples are taken from the animals immediately before the injection of the insulin analogue and at regular intervals up to eight hours after the injection, and the blood glucose content therein is determined.

Substance: Arg (A0), Gly (A21), Arg (B31), Arg (B32) human insulin [Compound 18 from Kohn et al.]
- calculated pI ([1]; calculated): 7.58
- experimentally determined pI ([1]; experimentally determined): 7.3

Substance: Gly (A21), Arg (B31), Arg (B32) human insulin [insulin glargine]
- hypoglycemic effect / time-action profile in rats [2]: delayed action of insulin glargine cannot by contrast be unambiguously observed in rats
